This note sets out measurements from US20160280792A1 (Kyowa Kirin, published 2016).

For assay [1], the target named is T1, soluble form of human IL-3Rα protein (extracellular region with C-terminal FLAG tag) (human, UniProt P26951 19-305).
T1 construct: Made in CHOras1 cells, purified on anti-FLAG gel; also called soluble form of IL-3Rα protein; soluble form of human IL-3Rα extracellular region
T1 sequence: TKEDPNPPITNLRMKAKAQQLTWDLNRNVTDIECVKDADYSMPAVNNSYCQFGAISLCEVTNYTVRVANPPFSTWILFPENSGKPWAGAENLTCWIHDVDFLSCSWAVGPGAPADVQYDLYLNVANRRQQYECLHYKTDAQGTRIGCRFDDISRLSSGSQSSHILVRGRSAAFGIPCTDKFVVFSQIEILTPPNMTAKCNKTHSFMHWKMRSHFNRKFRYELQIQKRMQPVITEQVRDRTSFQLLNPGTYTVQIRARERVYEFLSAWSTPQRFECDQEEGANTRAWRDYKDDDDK
The experiment in a line: SPR (Biacore 2000): antibody captured on anti-human antibody CM5 chip, soluble IL-3Rα as analyte, 1:1 Langmuir fit. How it is done: Specifically, CM5 (research grade) was used for a sensor tip (each GE). Firstly, the CM5 tip was activated by applying an equivalent mixture of 400 mM EDC (N-ethyl-N′-(3-dimethylaminopropyl)carbodiimidehydrochloride) and 100 mM NHS (N-hydroxysuccinimide) to the CM5 tip. Next, an antibody to the human antibody attached to the Human Antibody Capture Kit (GE) (hereinafter, referred to as anti-human antibody antibody) was diluted with the solution attached to the kit and applied thereto, thereby immobilizing the required amount of the anti-human antibody antibody to the CM5 tip. Regarding the mouse antibody to be used as a control, an antibody to the mouse antibody attached to the Mouse Antibody Capture Kit (GE) (hereinafter, referred to as anti-mouse antibody antibody) was diluted with the solution attached to the kit and applied thereto, thereby immobilizing a necessary amount thereof to the CM5 tip. Next, the surface of the activated tip was blocked and inactivated by applying 1 M of ethanolamine dihydrochloride thereto. By the above steps until this, preparation of a CM5 sensor tip which can measure the dissociation constant KD was completed.
Next, each of anti-IL-3Rα antibodies, was diluted to give a concentration of 5 μg/ml with HBS-FP buffer (GE) one kind per one flow cell and applied, thereby allowing it to bind to the immobilized anti-human antibody antibody or anti-mouse antibody antibody. Next, the soluble form of IL-3Rα protein was applied thereto. In order to dissociate the bound anti-IL-3Rα antibody and soluble form of IL-3Rα protein, 3 M MgCl₂ attached to Human Antibody Capture Kit or pH 1.7 of Glycine-HCl attached to Mouse Antibody Capture Kit was applied in the amount attached to the kit. The steps until this were regarded as one step. By repeating the same steps using two or more concentrations of the soluble form of IL-3Rα protein, data for calculating association and dissociation constants (sensorgram) were obtained.
In the analysis, Biaevaluation software (GE) was used and Biaevaluation Software Handbook was referred. Specifically, by carrying out simultaneous analysis of kinetics analysis, employing basically the 1:1 Langmuir binding reaction model and fitting, association rate constant (Ka) and dissociation rate constant (Kd) were calculated, and the value of dissociation constant KD was calculated by the calculation of Kd/Ka.
On the technique in general: Surface plasmon resonance follows binding to a sensor surface in real time, without labels.

Assay [2] deals with T2, IL-3Rα/GM-CSFRα chimeric protein, region 7 (192-GIPCTDK-198) of IL-3Rα replaced by GM-CSFRα sequence, on … (human, UniProt P26951 19-378).
T2 construct: also called Region 7 (B)
T2 chain: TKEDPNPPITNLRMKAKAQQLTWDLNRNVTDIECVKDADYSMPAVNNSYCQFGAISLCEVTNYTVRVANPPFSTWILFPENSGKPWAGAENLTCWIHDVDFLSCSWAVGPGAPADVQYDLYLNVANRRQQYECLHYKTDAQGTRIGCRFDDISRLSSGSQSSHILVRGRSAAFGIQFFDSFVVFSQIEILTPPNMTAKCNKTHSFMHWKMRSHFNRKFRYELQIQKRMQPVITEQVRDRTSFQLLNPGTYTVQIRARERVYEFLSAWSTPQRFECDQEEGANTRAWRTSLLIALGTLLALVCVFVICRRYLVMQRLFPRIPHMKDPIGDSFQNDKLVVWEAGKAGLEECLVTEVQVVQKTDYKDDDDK
The assay is described as follows: flow cytometry, labelled antibody at 1 µg/ml, HEK293T cells expressing the construct.

Assay [3] deals with T3, IL-3Rα/GM-CSFRα chimeric protein, region 6 (182-ILVRGRS-188) of IL-3Rα replaced by GM-CSFRα sequence, on … (human, UniProt P26951 19-378).
T3 construct: also called Region 6 (B)
T3 chain: T2 chain with I164F, R167N, R169T, Q176P, F177C, F178T, S180K
Described as above.

Assay [4] addresses T4, IL-3Rα/GM-CSFRα chimeric protein, B domain of IL-3Rα replaced by that of GM-CSFRα, on HEK293T cells (human, UniProt P15509 115-213).
T4 construct: domain: B domain; The KpnI sites (GGTACC) at both junctions each encode an extra Gly-Thr; also called B domain substitution
T4 sequence: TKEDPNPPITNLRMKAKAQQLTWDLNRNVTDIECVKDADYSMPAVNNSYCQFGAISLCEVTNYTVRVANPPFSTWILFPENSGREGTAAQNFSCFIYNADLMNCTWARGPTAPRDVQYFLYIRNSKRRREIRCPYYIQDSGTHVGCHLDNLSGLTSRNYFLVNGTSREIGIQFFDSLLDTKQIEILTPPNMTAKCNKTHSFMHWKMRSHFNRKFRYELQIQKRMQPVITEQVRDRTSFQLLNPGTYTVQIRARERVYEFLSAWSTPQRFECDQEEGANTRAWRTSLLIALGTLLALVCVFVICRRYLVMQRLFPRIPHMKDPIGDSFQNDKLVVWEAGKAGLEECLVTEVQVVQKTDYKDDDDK
The description is as above. Here is the method: (§1) HEK293T cell (ATCC CRL 1268) was used for the preparation of the IL-3Rα/GM-CSFRα chimeric protein expression cell. Using 293Fectin (Invitrogen), the plasmid DNA obtained in the above was introduced as an expression vector into the HEK293T. The HEK293T to which the expression vector was introduced was cultured using a shaker under conditions of 5% CO₂ and 37° C. after 2 days of the introduction, the […] was used for in the flow cytometry analysis.
(§2) From 100,000 to 1,000,000 cells of the chimeric protein expression cell were allowed to react for 30 minutes on ice with at a concentration of 1 μg/ml with an AlexaFlour488-labeled human antibody or a commercially available FITC-labeled anti-IL-3Rα mouse antibody (7G3 or 9F5: both from BD Biosciences, 6H6: Acris Antibodies, AC145: Milteny Biotech, 107D2.08: Dendritics). A staining medium (Dulbecco's PBS supplemented with 2% fetal bovine serum, 2 mM EDTA and 0.05% NaN₃) was used for the dilution of antibodies and cells. Next, the cells reacted with antibodies were washed three times with the staining medium and whether the labeled antibody bound to the cell was confirmed by flow cytometry.

In assay [5] the target is T5, IL-3Rα/GM-CSFRα chimeric protein, C domain of IL-3Rα replaced by that of GM-CSFRα, on HEK293T cells (human, UniProt P15509 214-327).
T5 construct: domain: C domain; KpnI sites at both junctions each encode an extra Gly-Thr; also called C domain substitution
T5 sequence: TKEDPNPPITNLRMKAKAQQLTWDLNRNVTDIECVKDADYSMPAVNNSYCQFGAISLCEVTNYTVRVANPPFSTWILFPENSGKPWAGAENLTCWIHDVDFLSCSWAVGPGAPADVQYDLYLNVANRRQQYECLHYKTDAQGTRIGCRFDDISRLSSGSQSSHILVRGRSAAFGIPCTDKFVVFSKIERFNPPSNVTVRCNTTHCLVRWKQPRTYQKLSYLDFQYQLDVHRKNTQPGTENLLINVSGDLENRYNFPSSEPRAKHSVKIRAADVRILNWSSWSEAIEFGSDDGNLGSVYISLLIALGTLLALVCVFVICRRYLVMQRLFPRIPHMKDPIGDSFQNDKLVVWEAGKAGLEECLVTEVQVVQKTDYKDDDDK
The description is as above. How it is done: as §1, §2

Residue numbers refer to the chain shown, from its start.

B1: chimeric 7G3 antibody (mouse 7G3 variable regions, human IgG1 constant region) (antibody, V domains shown)
VH: EVQLQQSGPELVKPGASVKMSCKASGYTFTDYYMKWVKQSHGKSLEWIGDIIPSNGATFYNQKFKGKATLTVDRSSSTAYMHLNSLTSEDSAVYYCTRSHLLRASWFAYWGQGTLVTVSA
VL: DFVMTQSPSSLTVTAGEKVTMSCKSSQSLLNSGNQKNYLTWYLQKPGQPPKLLIYWASTRESGVPDRFTGSGSGTDFTLTISSVQAEDLAVYYCQNDYSYPYTFGGGTKLEIK
notes: also called 7G3 (Chimeric antibody)
For orientation: Kd means the constant that tells how readily two partners part at equilibrium. B1 yielded a Kd in assay [1] of 1.88 nM.

B2: Old17 anti-human IL-3Rα human antibody (antibody, human IgG1, V domains shown)
VH: QVQLVQSGAEVKKPGSSVKVSCKTSGGTFSNFAISWVRQAPGQGLEWMGGIIPIFGSTNYAQKFQGRVTINADESTSTAYMELSSLRSEDTAVYYCAGGDKYGPYYFHYWGQGTLVTVSS
VL: DIQMTQSPSSLSASVGDRVTITCRASQGISSWLAWYQQKPEKAPKSLIYAASSLQSGVPSRFSGSGSGTDFTLTISSLQPEDFATYYCQQYNSYPYTFGQGTKLEIK
notes: Human antibody; recombinant form in N5KG1-Val Lark vector (human IgG1, kappa)
In the case of B2, the affinity in assay [1], expressed as Kd, was 1.43 nM.

B3: New102 anti-human IL-3Rα human antibody (antibody, human IgG1, V domains shown)
VH: QVQLVQSGAEVKKPGSSVKVSCMASGGTVSSYAISWVRQAPGQGLEWMGEIIPIFGIVNYAQKFQGRVTITADESTNTAYMELSSLRSEDTAIYYCARETAVAGILGYWGQGTLVTVSS
VL: B2 VL
notes: as for B2
The molecule B3 registered a Kd in assay [1] of 0.798 nM. The binding result in assay [2], in assay [3] and in assay [4] was “no binding (tested: 1 µg/ml)” each time.

B4: Old6 anti-human IL-3Rα human antibody (antibody, human IgG1, V domains shown)
VH: EVQLVESGGGLVKPGGSLRLSCAASGFTFSSHNMNWVRQAPGKGLEWVSSISSSSSYIYYADSVKGRFTISRDNAKNSLYLQMNSLRAEDTAVYYCAREDWGYFDYWGQGTLVTVSS
VL: AIQLTQSPSSLSASVGDRVTITCRASQGISSDLAWYQQKPGKAPKLLIYDASSLESGVPSRFSGSGSGTDFTLTISSLQPEDFATYYCQQFNSYPFTFGPGTKVDIK
notes: Human antibody
Consider B4, for which the Kd in assay [1] turned out to be 1.26 nM. The binding result in assay [5] and in assay [4] was “no binding (tested: 1 µg/ml)” in each case.

B5: Old4 anti-human IL-3Rα human antibody (antibody, human IgG1, V domains shown)
VH: QVQLLQSGAEVKKPGSSVKVSCKASGGTFSTYAISWVRQAPGQGLEWMGGIIPIFGIVNYAQKFQGRVTITADESTSTAYMELSSLRSEDTAVYYCARGGGSGPDVLDIWGQGTMVTVSS
VL: VIWMTQSPSLLSASTGDRVTISCRMSQGIRSYLAWYQQKPGKAPELLIYAASTLQSGVPSRFSGSGSGTDFTLTISSLQSEDFATYYCQQYYSFPYTFGQGTKLEIK
notes: Human antibody from KM mouse hybridoma; recombinant form made in N5KG1-Val Lark vector (human IgG1, kappa) in HEK293F
In the case of B5, the binding result in assay [4] is given as “no binding (tested: 1 µg/ml)”.

B6: Old5 anti-human IL-3Rα human antibody (antibody, human IgG1, V domains shown)
VH: B5 VH with L5V, I51L, G56D, V58E, A79V, V93M
VL: B5 VL
notes: as for B2
Turning to B6, the binding result in assay [4] is reported as “no binding (tested: 1 µg/ml)”.
